From EP4659808A2 (Sanofi, dated 2025)
Numbering of substitutions follows the chain as printed.

T1: human beta-DG extracellular domain (human, UniProt Q14118 654-749, biotinylated in the Example 6 ELISA)
T1 construct: extracellular domain; Expression of the soluble human protein is not described; also called hBeta-DG; hbeta-DG
T1 sequence (looked up): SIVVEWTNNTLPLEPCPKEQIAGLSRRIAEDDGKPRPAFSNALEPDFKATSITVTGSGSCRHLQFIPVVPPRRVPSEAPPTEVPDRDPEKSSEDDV

T2: murine beta-DG extracellular domain (mbeta-DG ECD) (mouse, UniProt Q62165 652-746)
T2 construct: range 652-746; Made in E. coli; also called mbeta-DG-HPC4; m βDG; not shown: C-terminal HPC4 tag
T2 sequence (looked up): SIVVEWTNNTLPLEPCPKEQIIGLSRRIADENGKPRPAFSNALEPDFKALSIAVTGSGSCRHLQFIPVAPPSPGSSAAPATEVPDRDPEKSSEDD

T3: murine laminin G-like 5 domain (mLG-5) (mouse, UniProt Q60675 2932-3118, biotinylated (Avi tag) ; Biotinylated at the Avi tag (soluble biotinylated protein); the tag is left out of the letters.)
T3 construct: Soluble protein from Expi293F cells; also called murine LG-5
T3 sequence: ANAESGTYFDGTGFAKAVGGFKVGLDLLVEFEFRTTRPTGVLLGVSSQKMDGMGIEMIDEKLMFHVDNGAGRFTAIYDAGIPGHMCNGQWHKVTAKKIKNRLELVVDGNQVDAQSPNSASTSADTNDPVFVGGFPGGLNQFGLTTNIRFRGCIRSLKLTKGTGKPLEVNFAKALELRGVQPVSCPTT

T4: Fabrazyme (agalsidase beta, Genzyme) (UniProt P06280 32-429)
T4 construct: Negative control in the dot blots
T4 sequence (looked up): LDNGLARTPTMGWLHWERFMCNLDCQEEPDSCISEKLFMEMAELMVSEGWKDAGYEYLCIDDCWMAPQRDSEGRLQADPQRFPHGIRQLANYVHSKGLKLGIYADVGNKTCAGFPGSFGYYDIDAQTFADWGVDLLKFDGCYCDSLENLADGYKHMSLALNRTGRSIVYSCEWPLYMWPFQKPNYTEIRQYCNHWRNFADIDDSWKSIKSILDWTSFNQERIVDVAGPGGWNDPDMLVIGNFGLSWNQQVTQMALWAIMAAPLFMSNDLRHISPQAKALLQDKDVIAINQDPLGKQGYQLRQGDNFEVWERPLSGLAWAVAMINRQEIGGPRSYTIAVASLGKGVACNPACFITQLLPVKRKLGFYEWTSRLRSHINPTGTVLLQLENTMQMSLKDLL

B1: anti-beta-DG antibody derived from phage display clone B06 (antibody, V domains shown)
VH: QIQLVQSGAEVKKPGKSLKIACKGSGYSFSNYWIGWVRQMPGKGLEWMGIIYPGDSDTRYSPSFHGQVTISADKSISTAYLQWSSLKASDTAMYYCARGVIINGTTSGFDYWGQGTLVIVSS
VL: ETTLTQSPATLSVSPGERATLSCRASQSVSSNLAWYQQKPGQAPRLLMYGASTRATGIPARFSGSGSGTEFTLTISSLQSEDFAVYYCQHYNNLPLTFGGGTKVDLK
notes: Phage display clone; also called B6
B2: anti-beta-DG antibody phage display clone B04 (antibody, V domains shown)
VH: QVQLQQSGGGLVQPGGSLRLSCAASGFTFSSYAMSWVRQAPGKGLEWVSAISGSGGSTYYADSVKGRFTVSRDNSKNTLYLQMNSLRAEDTAVYYCARLGYCSSTSCYLSAFDIWGQGTMVTVSS
VL: EIVLTQSPSTLSASVGDRVTITCRASQSISSWLAWYQQKPGKAPKLLIYDASSLESGVPSRFSGSGSGTEFTLTISSLQPDDFATYYCQQYNSYPLTFGGGTKVEIK
notes: Phage display clone
B3: anti-laminin-2 antibody derived from hybridoma clone C3 (antibody, V domains shown)
VH: DVMLVESGGDLVKPGGSLKLSCAASGFTFSSYTMSWVRQTPEKRLEWVASISSGGGNTYYPDSVKGRFTISRDNAKNNLYLQMSSLRSEDTALYYCARFDYGSSLDSWGQGTTLTVSS
VL: DIVLTQSPATLSVTPGDSVSLSCRASQSISNNLHWYQQKSHESPRLLIKYASQSISGIPSRFSGSGSGTDFTLSINSVETEDFGMYFCQQSKNWPRTFGGGTKLEIK
notes: Hybridoma-derived monoclonal antibody detected with anti-mouse IgG; Chimeric human IgG1/kappa versions were also made; also called C03; anti-laminin-2(C3)
B4: triAb 3407 (bispecific antibody, human IgG1, kappa)
light 1: EIVLTQSPDFLSVTPKEKVTLTCRASQSISNNLHWYQQKSDQSPKLLIKYASQSISGIPSRFSGSGSGTDFTLTINSVEAEDAATYFCQQSKSWPRTFGGGTKLEIKDKTHTEIVLTQSPDFLSVTPKEKVTLTCRASQSISNNLHWYQQKSDQSPKLLIKYASQSISGIPSRFSGSGSGTDFTLTINSVEAEDAATYFCQQSKSWPRTFGGGTKLEIKDKTHTRTVAAPSVFIFPPSDEQLKSGTASVVCLLNNFYPREAKVQWKVDNALQSGNSQESVTEQDSKDSTYSLSSTLTLSKADYEKHKVYACEVTHQGLSSPVTKSFNRGEC
heavy 1: EVQLVESGGGLVKPGGSLRLSCAASGFTFSSYTMSWVRQAPGKGLEWVASISSSGSNTYYPDSVKGRFTISRDNAKNNLYLQMNSLRAEDTALYYCARFDYGSSLDSWGQGTLLTVSSDKTHTEVQLVESGGGLVKPGGSLRLSCAASGFTFSSYTMSWVRQAPGKGLEWVASISSSGSNTYYPDSVKGRFTISRDNAKNNLYLQMNSLRAEDTALYYCARFDYGSSLDSWGQGTLLTVSSDKTHTASTKGPSVFPLAPSSKSTSGGTAALGCLVKDYFPEPVTVSWNSGALTSGVHTFPAVLQSSGSLSSVVTVPSSSLGTQTYICNVNHKPSNTKVDKKVEPKSCDKTHTCPPCPAPELLGGPSVFLFPPKPKDTLYITREPEVTCVVVDVSHEDPEVKFNWYVDGVEVHNAKTKPREEQYNNASRVVSVLTVLHQDWLNGKEYKCKVSNKALPAPIEKTISKAKGQPREPQVYTLPPCRDELTKNQVSLWCLVKGFYPSDIAVEWESNGQPENNYKTTPPVLDSDGSFFKKLTVDKSRWQQGNVFSCSVMHEALHNHYTQKSLSLSPG
heavy 2: QVQLVQSGAEVVKPGSSVKVSCEASGFTFTDSVITWVRQRPGQGLEWIGEIYPGSGNFYYNEKFQGRVTITADKSTSTAYMELSSLRSEDTAVYFCAMRRSSWGQGTLVTVSSASTKGPSVFPLAPSSKSTSGGTAALGCLVKDYFPEPVTVSWNSGALTSGVHTFPAVLQSSGSLSSVVTVPSSSLGTQTYICNVNHKPSNTKVDKKVEPKSCDKTHTCPPCPAPELLGGPSVFLFPPKPKDTLYITREPEVTCVVVDVSHEDPEVKFNWYVDGVEVHNAKTKPREEQYNNASRVVSVLTVLHQDWLNGKEYKCKVSNKALPAPIEKTISKAKGQPREPQVCTLPPSRDELTKNQVSLSCAVKGFYPSDIAVEWESNGQPENNYKTTPPVLDSDGSFFLVSKLTVDKSRWQQGNVFSCSVMHEALHNRFTQKSLSLSPG
light 2: DVVMTQTPLSLSVTPGQPASISCKSSQTIVHSNSKTYLEWYLQKPGQSPQLLIYKVSSRFSGVPDRFSGSGSGTDFTLKISRVEAEDVGVYYCFQGSHVPLTFGQGTKLEIKRTVAAPSVFIFPPSDEQLKSGTASVVCLLNNFYPREAKVQWKVDNALQSGNSQESVTEQDSKDSTYSLSSTLTLSKADYEKHKVYACEVTHQGLSSPVTKSFNRGEC
notes: Constant regions with knob-in-hole, NNAS, YTE and RF variants
B5: triAb 3429 (bispecific antibody, human IgG1, kappa)
light 1: B4 light 1 with K16G, N32Y, I58V, N76S, A83F, S142G
heavy 1: B4 heavy 1 with K136Q, S173T, S179D, A198S, N201T, N207S, L236T
heavy 2: B4 heavy 2
light 2: B4 light 2
B6: triAb 3439 (bispecific antibody, human IgG1, kappa)
light 1: B4 light 1 with K128G, N144Y, I170V, N188S, A195F
heavy 1: B4 heavy 1 with K13Q, S50T, S56D, A75S, N78T, N84S, L113T
heavy 2: B4 heavy 2
light 2: B4 light 2
B7: triAb 3437 (bispecific antibody, human IgG1, kappa)
light 1: B4 light 1 with S30G, T134S, N144Y, T186S
heavy 1: B4 heavy 1
heavy 2: B4 heavy 2
light 2: B4 light 2
B8: triAb 3423 (bispecific antibody, human IgG1, kappa)
light 1: B4 light 1 with T22S, N32Y, T74S
heavy 1: B4 heavy 1
heavy 2: B4 heavy 2
light 2: B4 light 2
B9: anti-beta-DG antibody derived from hybridoma clone AS30 (antibody, V domains shown)
VH: QIQLQQSGPELVKPGASVKMSCEASGFTFTDSVITWVKQRPGQGLEWIGEIYPGSGNFYYNEKFKGKATLTADKSSNTAYMQLRSLTSEDSAVYFCAMRRSSWGQGTLVTVSA
VL: DVLMTQTPLSLPVSLGDQASISCRSSQTIVHSNSKTYLEWYLQKPGQSPKLLIYKVSNRFSGVPDRFSGSGSGTDFTLKISRVEAEDLGVYYCFQGSHVPLTFGAGTKLELK
notes: detected with anti-mouse IgG
B10: anti-beta-DG antibody derived from hybridoma clone AS19 (antibody, V domains shown)
VH: B9 VH with I2V, E23K, T35S, P41T, N57S, F58I, S102Y
VL: B9 VL with T28S, S34G, K35N
notes: Hybridoma-derived monoclonal antibody detected with anti-mouse IgG; also called parental anti-beta-DG (clone AS19)

Assays:
[1] = target: T1, human beta-DG extracellular domain; assay: SPR (Biacore), mAb immobilized, hBeta-DG in flow
[2] = target: T2, murine beta-DG extracellular domain …; assay: SPR (Biacore), mAb immobilized, mBeta-DG in flow
[3] = target: T3, murine laminin G-like 5 domain (mLG-5); assay: SPR (Biacore), mAb immobilized, mLG-5 in flow
[4] = target: T1, human beta-DG extracellular domain; assay: SPR (Biacore T100), antibody captured on Protein G chip, BDG in flow, 1:1 model
[5] = target: T4, Fabrazyme (agalsidase beta, Genzyme); assay: dot blot

Binder	Kd [1]	Kd [4]	koff [4]	kon [4]	also measured
B1	2.36 nM				koff [1]: 0.00216 s⁻¹; kon [1]: 968000 M⁻¹ s⁻¹; Kd [2]: 162 nM; koff [2]: 0.00232 s⁻¹; kon [2]: 14300 M⁻¹ s⁻¹
B2	2.57 nM				
B3					Kd [3]: 8.27 nM
B4		2.08 nM	0.00326 s⁻¹	1.57e+06 M⁻¹ s⁻¹	
B5		1.9 nM	0.00404 s⁻¹	2.13e+06 M⁻¹ s⁻¹	
B6		1.3 nM	0.004 s⁻¹	3.07e+06 M⁻¹ s⁻¹	
B7		1.87 nM	0.0045 s⁻¹	2.41e+06 M⁻¹ s⁻¹	
B8		1.6 nM	0.00433 s⁻¹	2.7e+06 M⁻¹ s⁻¹	
B9	1.08 nM				koff [1]: 0.000963 s⁻¹; kon [1]: 890000 M⁻¹ s⁻¹; binding result [5]: no binding; Kd [2]: 1.48 nM; koff [2]: 0.00113 s⁻¹; kon [2]: 773000 M⁻¹ s⁻¹
B10					binding result [5]: no binding
